Assay results published in PMC8488606, “The citron homology domain as a scaffold for Rho1 signaling” (Proceedings of the National Academy of Sciences of the …, 2021).

What was measured:
[1] = target: T1, Recombinant His6-Rom2 CNH (862-1194), citron homology domain of Aspergillus fumigatus Rom2 (Aspergillus fumigatus, UniProt Q4WUI2 862-1194, biotinylated using the EZLink NHS-Peg4-Biotin reagent (for BLI)); test: BLI; biotinylated AfRom2 CNH on super streptavidin (SSA) biosensors, apo AfRho1 (no nucleotide) in solution, Octet Htx; 25 mM Hepes, 150 mM NaCl, 0.5 mM TCEP pH 7.5; six-point series from 1 mM in threefold dilutions; conditions: both partners purified
T1 construct: Rom2 (guanine nucleotide exchange factor of Rho1), Aspergillus fumigatus, UniProt Q4WUI2, CNH domain construct residues 862-1194; Cloned into a noncleavable 6His version of pGEX6P1 with primers P23 and P24, then the C terminus was truncated with primers P19 and P20; The N-terminal end of the tag is read from the printed name 'His6-Rom2 CNH'; also called AfRom2 CNH; AfRom2CNH; source: E. coli BL21 …
T1 sequence (looked up): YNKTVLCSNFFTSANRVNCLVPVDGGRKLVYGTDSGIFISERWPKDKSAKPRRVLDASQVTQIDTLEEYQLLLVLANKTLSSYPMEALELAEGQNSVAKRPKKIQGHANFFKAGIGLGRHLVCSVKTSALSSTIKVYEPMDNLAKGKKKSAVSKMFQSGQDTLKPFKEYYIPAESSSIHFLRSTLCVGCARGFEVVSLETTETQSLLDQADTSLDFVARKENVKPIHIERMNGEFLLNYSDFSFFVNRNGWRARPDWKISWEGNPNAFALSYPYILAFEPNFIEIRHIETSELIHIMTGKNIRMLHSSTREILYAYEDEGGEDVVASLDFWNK

[2] = target: T1, Recombinant His6-Rom2 CNH (862-1194), …; test: BLI; biotinylated AfRom2 CNH on super streptavidin (SSA) biosensors, AfRho1 with GDP or GTPγS (saturating nucleotide) in solution, Octet Red 384; 25 mM Hepes, 150 mM NaCl, 0.5 mM TCEP pH 7.5; six-point series from 1 mM in threefold dilutions; conditions: both partners purified

B1: Recombinant AfRho1 (residues 1 to 181) with F25N mutation (enzyme)
chain: not shown
notes: Rho1 GTPase, Aspergillus fumigatus, residues 1 to 181, F25N introduced for protein stability; Expressed from pGEX6P1; GST removed with PreScission protease; Used without nucleotide, with GDP or with GTPγS in BLI; also called apo AfRho1; AfRho1-GDP; source: E. coli BL21 (non-DE3), purified (Glutathione-Sepharose, PreScission cleavage, Superdex 75)
[1]
  Kd: 80 µM
[2]
  Kd: 200 µM
